How the values were obtained:
[1] = Lamphear et al. 2005; cited from earlier work
[2] = tested on: test taste panel of three persons; test: Sucrose replacement in yoghurt drink, sweetness in 23% Cheasy A38; assay type: in vivo, human
Method: A test taste panel of three persons was made to evaluate brazzein sweetness in yoghurt drink. The yoghurt product Cheasy A38 (Arla Foods), which contains 0.1% milk fat, 4.3% milk protein, was diluted to a final conc. of 1% milk protein, with sucrose or a solution of brazzein produced in A. oryzae. […] Thus, at the present condition in 23% Cheasy A38, the brazzein batch is 930 times sweeter than sucrose on weight basis.
Furthermore, the sweetness of brazzein and sucrose were additive as 6% sucrose+75 mg/l brazzein, taste like 12.7%±0.6% (SD) sucrose in 23% Cheasy A38.

[3] = tested on: taste panel of three persons; test: pH profile of the sweet taste of brazzein compared to sucrose, in 5 g/l whey protein; assay type: in vivo, human; settings: 75 mg/l brazzein
Method: A taste panel of three persons estimated the pH profile of the sweet taste of brazzein compared to sucrose. 5 g/l whey protein (Lacprodan DI-9224, Arla Foods Ingredients) with 0%, 2%, 4%, 6%, 8%, 10%, 12%, 14% and 16% sucrose or 75 mg/l brazzein was adjusted with H3PO4, Na2HPO4 or NaOH to a final pH of […], 4.0, 5.0, 7.0 and 9.0.

[4] = background statement; cited from earlier work
[5] = background statement; cited from earlier work; remark: listed apart in the source
[6] = tested on: test taste panel of six persons; test: Sensory evaluation of the sweetness of brazzein compared to sucrose, in 20% skim milk; assay type: in vivo, human; settings: 50 mg/l brazzein in 20% skim milk
Source text: Sweet protein: The term “sweet protein” as used herein refers to a protein having an intense sweet taste which is suitable for sweetening of food, beverage and/or medication products for human consumption. On weight basis, a sweet protein according to the present invention may be at least 100, preferably at least 200, more preferably at least 500, and even more preferably at least 1,000, times sweeter than sucrose, when compared to a 2% solution of sucrose. For purposes of the present invention, comparison of sweetness may be determined by testing human perception of sweetness of the protein against known controls using varied concentrations of the protein being diluted in water or in an aqueous solution which avoid adsorption on surfaces, such as 20% skim milk, e.g., as described in Example 3 of the present application. A test taste panel of six persons was used to evaluate the brazzein sweetness compared to sucrose. The brazzein batch from Example 2 was diluted 30 fold to a final conc. of 50 mg/l with 20% skim milk in order to avoid adsorption on surfaces. The sweetness was estimated using a standard of 0%, 0.68%, 1.37%, 2.74%, 5.48%, 11.0%, 21.9% (w/v) sucrose diluted in 20% (v/v) skim milk. The sweetness of this 50 mg/l brazzein dilution corresponded to an average sweetness of 2.57% (w/v) sucrose±0.55% sucrose (SD). Thus, the brazzein batch is 510 times sweeter than sucrose on weight basis at the present condition. The sweet taste delay of the brazzein was estimated to be 1.5 sec±1.2 sec (SD).

Molecule | sweetness relative to the form having an N-terminal pyroglutamate [1] | times sweeter than sucrose on weight basis ([2]; 75 mg/l brazzein in 23% Cheasy A38) | sweetness corresponding to sucrose ([2]; 75 mg/l brazzein in 23% Cheasy A38, SD 1%) | sweetness of brazzein plus sucrose, tastes like sucrose ([2]; 6% sucrose + 75 mg/l brazzein in 23% Cheasy A38, SD 0.6%) | sweet-taste delay sensation ([2]; in the presence of 6% sucrose, 23% Cheasy A38) | sucrose equivalent sweet taste ([3]; pH 2.0) | sucrose equivalent sweet taste ([3]; pH 3.0) | sucrose equivalent sweet taste ([3]; pH 4.0) | sucrose equivalent sweet taste ([3]; pH 5.0) | sucrose equivalent sweet taste ([3]; pH 7.0) | sucrose equivalent sweet taste ([3]; pH 9.0) | heat stability [4] | solubility in water [5] | times sweeter than sucrose on weight basis [6] | sweet taste delay ([6]; SD 1.2 sec) | average sweetness corresponding to sucrose ([6]; panel of six, SD 0.55% sucrose)
53-amino acid form: Natural brazzein form lacking the N-terminal glutamine or pyroglutamate; amino acids 2 to 54 of SEQ ID NO: 2 (QFTTILSIGITVFGLANTGAFAAPQPVPEAYAVSDPEAHPDDFAGMDANQLQK) | twice as sweet |  |  |  |  |  |  |  |  |  |  |  |  |  |  | 
brazzein: Sweet protein of Pentadiplandra brazzeana Baillon or a recombinant form; tested batch secreted from Aspergillus oryzae (SEQ ID NO: 2) (protein) MQFTTILSIGITVFGLANTGAFAAPQPVPEAYAVSDPEAHPDDFAGMDANQLQKREDKCKKVYENYPVSKCQLANQCNYDCKLDKHARSGECFYDEKRNLQCICDYCEY |  | 930 times | 7 % sucrose | 12.7 % sucrose | almost removed | 6.0 % sucrose | 6.0 % sucrose | 4.3 % sucrose | 6.3 % sucrose | 5.0 % sucrose | 2.7 % sucrose | can withstand heat | > 50 mg/mL | 510 times | 1.5 s | 2.57 % (w/v) sucrose

Source: patent US9273320B2, “Method of producing a sweet protein” (NOVOZYMES A/S, priority 2009, dated 2016)
